Test results reported in US20030147847A1 (IMMUNEX, published 2003).

B1: MICA/Fc (Fc fusion, UniProt Q29983 24-307, looked up)
chain: EPHSLRYNLTVLSWDGSVQSGFLTEVHLDGQPFLRCDRQKCRAKPQGQWAEDVLGNKTWDRETRDLTGNGKDLRMTLAHIKDQKEGLHSLQEIRVCEIHEDNSTRSSQHFYYDGELFLSQNLETKEWTMPQSSRAQTLAMNVRNFLKEDAMKTKTHYHAMHADCLQELRRYLKSGVVLRRTVPPMVNVTRSEASEGNITVTCRASGFYPWNITLSWRQDGVSLSHDTQQWGDVLPDGNGTYQTWVATRICQGEEQRFTCYMEHSGNHSTHPVPSGKVLVLQSHW
notes: not shown: Fc portion not described
B2: human ULBP1-Fc fusion polypeptide (Fc fusion)
chain: WSRAGWVDTHCLCYDFIITPKSRPEPQWCEVQGLVDERPFLHYDCVNHKAKAFASLGKKVNVTKTWEEQTETLRDVVDFLKGQLLDIQVENLIPIEPLTLQARMSCEHEAHGHGRGSWQFLFNGQKFLLFDSNNRKWTALHPGAKKMTEKWEKNRDVTMFFQKISLGDCKMWLEEFLMYWEQMLDPTKPPSLAPGTTQPRSCDKTHTCPPCPAPEAEGAPSVFLFPPKPKDTLMISRTPEVTCVVVDVSHEDPEVKFNWYVDGVEVHNAKTKPREEQYNSTYRVVSVLTVLHQDWLNGKEYKCKVSNKALPAPIEKTISKAKGQPREPQVYTLPPSRDELTKNQVSLTCLVKGFYPSDIAVEWESNGQPENNYKTTPPVLDSDGSFFLYSKLTVDKSRWQQGNVFSCSVMHEALHNHYTQKSLSLSPGK
notes: ULBP-1 extracellular domain fused to the human IgG1 Fc mutein
B3: UL16-Fc fusion protein (Fc fusion)
chain: VDLGSKSSNSTCRLNVTELASIHPGETWTLHGMCISICYYENVTEDEIIGVAFTWQHNESVVDLWLYQNDTVIRNFSDITTNILQDGLKMRTVPVTKLYTSRMVTNLTVGRYDCLRCENGTTKIIERLYVRLGSLYPRPPGSGLAKHPSVSADEELSA
notes: extracellular domain; not shown: IgG1 Fc (mutein form), as described for OX40-Fc (Baum et al., EMBO J. 13:3992-4001, 1994); the mutein is described in p-
B4: human ULBP2-Fc fusion polypeptide (Fc fusion)
chain: WSRAGRADPHSLCYDITVIPKFRPGPRWCAVQGQVDEKTFLHYDCGNKTVTPVSPLGKKLNVTTAWKAQNPVLREVVDILTEQLRDIQLENYTPKEPLTLQARMSCEQKAEGHSSGSWQFSFDGQIFLLFDSEKRMWTTVHPGARKMKEKWENDKVVAMSFHYFSMGDCIGWLEDFLMGMDSTLEPSAGAPLAMSSGTTQLRRSCDKTHTCPPCPAPEAEGAPSVFLFPPKPKDTLMISRTPEVTCVVVDVSHEDPEVKFNWYVDGVEVHNAKTKPREEQYNSTYRVVSVLTVLHQDWLNGKEYKCKVSNKALPAPIEKTISKAKGQPREPQVYTLPPSRDELTKNQVSLTCLVKGFYPSDIAVEWESNGQPENNYKTTPPVLDSDGSFFLYSKLTVDKSRWQQGNVFSCSVMHEALHNHYTQKSLSLSPGK
notes: ULBP-2 extracellular domain (residues 1-223) fused to the human IgG1 Fc mutein
B5: MICB/Fc (Fc fusion, UniProt Q29980 23-309, looked up)
chain: AEPHSLRYNLMVLSQDGSVQSGFLAEGHLDGQPFLRYDRQKRRAKPQGQWAENVLGAKTWDTETEDLTENGQDLRRTLTHIKDQKGGLHSLQEIRVCEIHEDSSTRGSRHFYYDGELFLSQNLETQESTVPQSSRAQTLAMNVTNFWKEDAMKTKTHYRAMQADCLQKLQRYLKSGVAIRRTVPPMVNVTCSEVSEGNITVTCRASSFYPRNITLTWRQDGVSLSHNTQQWGDVLPDGNGTYQTWVATRIRQGEEQRFTCYMEHSGNHGTHPVPSGKALVLQSQRTD
notes: also called MICB1/FC; not shown: Fc portion not described

How the values were obtained:
[1] = molecular target: FLAG tagged Dap10 alone on transfected 293 EBNA cells (UniProt Q9UBK5); assay: flow cytometry, transfected 293 EBNA cells, 2 µg Fc protein + goat anti-human IgG PE
[2] = molecular target: Full length UL16 on transfected 293 EBNA cells (human cytomegalovirus) (UniProt P16757); assay: as above
[3] = molecular target: NKG2D alone on transfected 293 EBNA cells (UniProt P26718); assay: as above
[4] = molecular target: NKG2D/Dap10 on transfected 293E cells (UniProt P26718); assay: as above
[5] = molecular target: human ULBP1-Fc fusion polypeptide (human); assay: flow cytometry; ULBP1/FC preincubated with excess isotype control antibody, then added to 293E cells transfected with NKG2D/Dap10; goat anti-huIg PE
[6] = molecular target: human ULBP2-Fc fusion polypeptide (human); assay: flow cytometry; ULBP2/FC preincubated with excess isotype control antibody, then added to 293E cells transfected with NKG2D/Dap10; goat anti-huIg PE
[7] = molecular target: ULBP3/Fc (human) (UniProt Q9BZM4); assay: flow cytometry; ULBP3/FC preincubated with excess isotype control antibody, then added to 293E cells transfected with NKG2D/Dap10; goat anti-huIg PE
Sequence of ULBP3/Fc (human) (Q9BZM4 30-217): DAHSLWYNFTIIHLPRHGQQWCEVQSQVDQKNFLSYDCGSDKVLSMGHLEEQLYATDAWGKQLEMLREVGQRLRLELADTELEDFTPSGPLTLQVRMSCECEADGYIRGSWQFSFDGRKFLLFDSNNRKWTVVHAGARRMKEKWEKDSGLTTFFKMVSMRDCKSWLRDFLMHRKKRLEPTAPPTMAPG

[8] = molecular target: PERB11/Fc; assay: flow cytometry; PERB11/FC preincubated with excess isotype control antibody, then added to 293E cells transfected with NKG2D/Dap10; goat anti-huIg PE
[9] = molecular target: FLAG tagged Dap10 alone on transfected 293 EBNA cells (UniProt Q9UBK5); assay: flow cytometry, transfected 293 EBNA cells, M1 + sheep anti-mouse IgG PE
[10] = molecular target: Full length UL16 on transfected 293 EBNA cells (human cytomegalovirus) (UniProt P16757); assay: as above
[11] = molecular target: NKG2D alone on transfected 293 EBNA cells (UniProt P26718); assay: as above
[12] = molecular target: T1, NKG2D/Dap10 on transfected 293E cells (UniProt P26718 1-216; Q9UBK5 19-93); assay: as above
T1 construct: whole, on cells; Co-expressed on 293 EBNA (293E) cells from the pDC409 vector; also called NKG2D+FLAG tagged Dap10
T1 sequence 1: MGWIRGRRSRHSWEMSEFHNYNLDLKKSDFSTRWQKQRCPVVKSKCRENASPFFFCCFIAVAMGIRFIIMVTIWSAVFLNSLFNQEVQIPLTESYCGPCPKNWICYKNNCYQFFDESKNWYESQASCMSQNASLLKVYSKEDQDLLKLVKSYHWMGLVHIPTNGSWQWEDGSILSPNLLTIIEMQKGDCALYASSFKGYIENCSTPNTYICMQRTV
T1 sequence 2: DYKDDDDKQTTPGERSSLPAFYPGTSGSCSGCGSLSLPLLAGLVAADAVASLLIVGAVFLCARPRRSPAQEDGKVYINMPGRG

[13] = molecular target: T1, NKG2D/Dap10 on transfected 293E cells; assay: flow cytometry; NKG2D/Dap10-transfected 293E cells, M1 + sheep anti-mouse IgG PE (expression control)
[14] = molecular target: T1, NKG2D/Dap10 on transfected 293E cells; assay: as above; remark: listed apart in the source
[15] = molecular target: T1, NKG2D/Dap10 on transfected 293E cells; assay: flow cytometry, transfected 293 EBNA cells, 2 µg Fc protein + goat anti-human IgG PE
[16] = molecular target: T1, NKG2D/Dap10 on transfected 293E cells; assay: flow cytometry; NKG2D/Dap10-transfected 293E cells preincubated with 25 µg ULBP1/LZ (competitor)
[17] = molecular target: T1, NKG2D/Dap10 on transfected 293E cells; assay: flow cytometry; NKG2D/Dap10-transfected 293E cells preincubated with 25 µg hCD40L/LZ (control blocking protein)
[18] = molecular target: T2, NKG2D alone on transfected 293 EBNA cells (UniProt P26718 1-216, limits assumed); assay: flow cytometry, transfected 293 EBNA cells, 2 µg Fc protein + goat anti-human IgG PE
T2 construct: whole, on cells
T2 sequence (looked up): T1 sequence 1

[19] = molecular target: T3, FLAG tagged Dap10 alone on transfected 293 EBNA cells (UniProt Q9UBK5 19-93); assay: as above
T3 construct: whole, on cells
T3 sequence: T1 sequence 2

[20] = molecular target: T4, Full length UL16 on transfected 293 EBNA cells (human cytomegalovirus, UniProt P16757 27-230); assay: as above
T4 construct: whole, on cells; also called UL16 FL
T4 sequence: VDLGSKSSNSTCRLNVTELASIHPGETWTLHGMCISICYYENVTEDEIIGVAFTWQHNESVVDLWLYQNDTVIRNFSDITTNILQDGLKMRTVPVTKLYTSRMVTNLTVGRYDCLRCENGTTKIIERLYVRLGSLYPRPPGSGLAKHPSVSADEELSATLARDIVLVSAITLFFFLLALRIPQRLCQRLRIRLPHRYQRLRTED

Molecule | Mean Fluorescence Intensity (MFI) [15] [MFI] | Mean Fluorescence Intensity (MFI) [16] [MFI] | Mean Fluorescence Intensity (MFI) [17] [MFI] | Mean Fluorescence Intensity (MFI) [18] [MFI] | Mean Fluorescence Intensity (MFI) [19] [MFI] | Mean Fluorescence Intensity (MFI) [20] [MFI] | also measured
p7.5/Fc (Fc fusion) | – | – | – | – | – | – | Mean Fluorescence Intensity (MFI) [1]: 12.1 MFI; Mean Fluorescence Intensity (MFI) [2]: 12.1 MFI; Mean Fluorescence Intensity (MFI) [3]: 9.99 MFI; Mean Fluorescence Intensity (MFI) [4]: 12.2 MFI
antibody M90 (isotype matched control antibody) | – | – | – | – | – | – | MFI of staining protein on NKG2D/Dap10 cells after preincubation with blocking antibody [5]: 216 MFI; MFI of staining protein on NKG2D/Dap10 cells after preincubation with blocking antibody [6]: 192 MFI; MFI of staining protein on NKG2D/Dap10 cells after preincubation with blocking antibody [7]: 160 MFI; MFI of staining protein on NKG2D/Dap10 cells after preincubation with blocking antibody [8]: 167 MFI
M1 anti-FLAG antibody | – | – | – | – | – | – | Mean Fluorescence Intensity (MFI) [9]: 112 MFI; Mean Fluorescence Intensity (MFI) [10]: 11.3 MFI; Mean Fluorescence Intensity (MFI) [11]: 8.49 MFI; Mean Fluorescence Intensity (MFI) [12]: 130 MFI; Mean Fluorescence Intensity (MFI) [13]: 368 MFI; Mean Fluorescence Intensity (MFI) [14]: 261 MFI
PERB11/Fc (Fc fusion) | 109 | 11 | 280 | – | – | – | Mean Fluorescence Intensity (MFI) [1]: 12.7 MFI; Mean Fluorescence Intensity (MFI) [2]: 161 MFI; Mean Fluorescence Intensity (MFI) [3]: 10.2 MFI
B1 | 120 | 11 | 256 | 15.4 | 12 | 14 | –
B2 | 115 | 11 | 263 | 10.4 | 13.6 | 142 | –
B3 | 21.2 | – | – | 27.9 | 39.2 | 17.9 | –
B4 | 117 | 8 | 236 | 8.96 | 11.5 | 121 | –
B5 | 118 | 9 | 258 | 9.58 | 18.4 | 94.5 | –
